Results: US20200316211A1, “LOCALLY ACTING TOLL-LIKE RECEPTOR 7 (TLR7) AND/OR TLR8 AGONIST IMMUNOTHERAPY COMPOUNDS AND THEIR USES” (Altimmune UK Limited, priority 2019, published 2020)
Where a SMILES comes first, the peptide text is derived from it. Where no end group is shown, it is not given here. Side-chain parts run from the residue outwards. The star is where a group is joined. X1 = CCCCc1nc2c(N)nc3ccccc3c2n1Cc1ccc(CNC(=O)COCC(=O)*)cc1; Palmitoyl = CCCCCCCCCCCCCCCC(=O)*; PEG3 = NCCOCCOCCOCCC(=O)O; ADJ12 = not defined here

Experiments:
[1] = Appearance (visual) and solubility (RP-HPLC of supernatant) in different buffer conditions; type: physicochemical; conditions: for Solubility/appearance across buffer conditions: change in pH and/or presence of sodium chloride; for HPLC solubility: peak area vs same compound in 10% acetic acid
Description: The solubility of peptide conjugates KK-12, HH-12, AH-12 and HL-12 was determined by visual inspection of the solution and by RP-HPLC. Twenty (20) minutes after dispersion of the peptide conjugates in different buffer conditions, the solutions were centrifuged for 10 minutes and the supernatant analyzed by RP-HPLC. The peak area of each peptide conjugate was compared with the area of the same compound made fully soluble in 10% acetic acid. Appearance of the solution was evaluated visually according to the following criteria: clear, very slightly opalescent, slightly opalescent, opalescent or precipitated.

[2] = Change in body weight in the CT26 study (systemic toxicity); type: in vivo, BALB/c mice; conditions: 100 nmol/dose/animal intratumoral, day 1, 3, 5; body weight minus tumor weight; FIG. 11
Description: (§1) Six to eight-week-old female BALB/c mice (Charles River) were injected subcutaneously with 2×10^5 CT26 cells on the right flank. When the tumors reached an average volume of ˜150 mm^3, mice were randomized into seven groups of eight mice per group, approximately 10 days (13 days) post tumor cell grafting, referred as day 0. After randomization, tumor size and body weight were assessed three times a week for the duration of the study. Animals were sacrificed according to the following humane endpoints: tumor volume ≥2000 mm^3, presence of necrotic or ulcerated tumor, impaired mobility including transient prostration or hunched posture, or interference with a vital physiological function. Treatments were initiated on day 1. All animals from group 1 to group 6 received three intratumoral injections of either formulated or non-formulated small molecule TLR7/8 agonists, or vehicle control, once every two days, on day 1, day 3 and day 5, in 50 μl delivery dose. Mice of group 7 were untreated. Animals from group 1 to group 4 were respectively treated with 100 nmol/dose/animal of kHL-12 or pHL-12 both prepared in 28 mM L-Histidine/Mannitol dilution buffer, or 3M-052 (MedChemExpress, teltralimod Cat. No.: HY-109104) prepared in ethanol/sesame oil (1:10), or R848 (Invivogen, R848 VacciGrade™, Cat. Code vac-r848) reconstituted in 28 mM L-Histidine/Mannitol dilution buffer. Mice from group 5 and group 6 received control vehicles in the delivery dose of 50 μl, 28 mM L-Histidine/Mannitol dilution buffer and ethanol/sesame oil (1:10), respectively.
(§2) Body weight was normalized by subtracting the weight of the tumor to the overall body weight.

[3] = in more than half of the participants; cited from earlier work
CT26 cells = assay: Antitumor activity after intratumoral injection, CT26 right flank model; type: in vivo, BALB/c mice; conditions: 100 nmol/dose/animal intratumoral, day 1, 3, 5; FIG. 10
Description: as §1, §2

[4] = poloxamer 407 thermogel formulation, intratumoral, animal models; cited from earlier work
[5] = intratumoral, very low doses (0.005 to 0.055 mg); cited from earlier work

Row | Compound | Solubility/appearance across buffer conditions [1] | HPLC solubility ([1]; pH 5.2, NaCl 154 mM) [% HPLC] | HPLC solubility ([1]; pH 5.2, no NaCl) [% HPLC] | HPLC solubility ([1]; pH 7.5, NaCl 154 mM) [% HPLC] | HPLC solubility ([1]; pH 7.5, no NaCl) [% HPLC] | Impact on body weight over time [2] | Antitumoral activity (median tumor volume) (CT26 cells) | also measured
1 | CCCCc1nc2c(N)nc3ccccc3c2n1Cc1ccc(CNC(=O)COCC(=O)NCCOCCOCCOCCC(=O)NCCCC[C@H](NC(=O)[C@H](CC(C)C)NC(=O)[C@H](CCCNC(=N)N)NC(=O)[C@H](CCCNC(=N)N)NC(=O)[C@H](CC(C)C)NC(=O)[C@H](CC(C)C)NC(=O)[C@H](C)NC(=O)[C@H](C)NC(=O)[C@H](Cc2c[nH]cn2)NC(=O)[C@H](CC(C)C)NC(=O)[C@H](C)NC(=O)[C@H](CC(C)C)NC(=O)[C@H](Cc2c[nH]cn2)NC(=O)[C@H](C)NC(=O)[C@H](C)NC(=O)[C@H](CC(C)C)NC(=O)[C@H](CC(C)C)NC(=O)[C@H](CCCNC(=N)N)NC(=O)[C@H](CCCNC(=N)N)NC(C)=O)C(N)=O)cc1 [AH-12, Ac-RRLLAAHLALHAALLRRLK(ADJ12)-NH2] (Ac-RRLLAAHLALHAALLRRLK([PEG3-X1])-NH2) | change in appearance and/or HPLC solubility | >98 | >98 | 90 | >98 | – | – | –
2 | CCCCc1nc2c(N)nc3ccccc3c2n1Cc1ccc(CNC(=O)COCC(=O)NCCOCCOCCOCCC(=O)NCCCC[C@H](NC(=O)[C@H](CC(C)C)NC(=O)[C@H](CCCNC(=N)N)NC(=O)[C@H](CCCNC(=N)N)NC(=O)[C@H](CC(C)C)NC(=O)[C@H](CC(C)C)NC(=O)[C@H](Cc2c[nH]cn2)NC(=O)[C@H](C)NC(=O)[C@H](CC(C)C)NC(=O)[C@H](CC(C)C)NC(=O)[C@H](C)NC(=O)[C@H](CC(C)C)NC(=O)[C@H](CC(C)C)NC(=O)[C@H](C)NC(=O)[C@H](Cc2c[nH]cn2)NC(=O)[C@H](CC(C)C)NC(=O)[C@H](CC(C)C)NC(=O)[C@H](CCCNC(=N)N)NC(=O)[C@H](CCCNC(=N)N)NC(C)=O)C(N)=O)cc1 [HL-12, Ac-RRLLHALLALLAHLLRRLK(ADJ12)-NH2] (Ac-RRLLHALLALLAHLLRRLK([PEG3-X1])-NH2) | change in appearance and/or HPLC solubility | >98 | >98 | 0 | >98 | – | – | –
3 | CCCCc1nc2c(N)nc3ccccc3c2n1Cc1ccc(CNC(=O)COCC(=O)NCCOCCOCCOCCC(=O)NCCCC[C@H](NC(=O)[C@H](CC(C)C)NC(=O)[C@H](CCCNC(=N)N)NC(=O)[C@H](CCCNC(=N)N)NC(=O)[C@H](CC(C)C)NC(=O)[C@H](CC(C)C)NC(=O)[C@H](Cc2c[nH]cn2)NC(=O)[C@H](C)NC(=O)[C@H](CC(C)C)NC(=O)[C@H](CC(C)C)NC(=O)[C@H](C)NC(=O)[C@H](CC(C)C)NC(=O)[C@H](CC(C)C)NC(=O)[C@H](C)NC(=O)[C@H](Cc2c[nH]cn2)NC(=O)[C@H](CC(C)C)NC(=O)[C@H](CC(C)C)NC(=O)[C@H](CCCNC(=N)N)NC(=O)[C@H](CCCNC(=N)N)NC(=O)[C@@H](N)CCCCNC(C)=O)C(N)=O)cc1 [kHL-12, K(Ac)—RRLLHALLALLAHLLRRLK(ADJ12)-NH2] (H-K(Ac)RRLLHALLALLAHLLRRLK([PEG3-X1])-NH2; N-terminus and C-terminus assumed) | – | – | – | – | – | limited impact on the body weight | – | –
4 | CCCCOc1nc(N)c2[nH]c(=O)n(CCCN(CCCN3CCOCC3)Cc3cccc(CC(=O)OC)c3)c2n1 [AZD8848] | – | – | – | – | – | – | – | Clinical safety issues from systemic interferon signaling [3]: significant influenza-like symptoms
5 | CCCCc1nc2c(N)nc3ccccc3c2n1Cc1ccc(CNC(=O)COCC(=O)NCCOCCOCCOCCC(=O)NCCCC[C@H](NC(=O)[C@H](CC(C)C)NC(=O)[C@H](CCCNC(=N)N)NC(=O)[C@H](CCCNC(=N)N)NC(=O)[C@H](CC(C)C)NC(=O)[C@H](CC(C)C)NC(=O)[C@H](Cc2c[nH]cn2)NC(=O)[C@H](C)NC(=O)[C@H](Cc2c[nH]cn2)NC(=O)[C@H](CC(C)C)NC(=O)[C@H](C)NC(=O)[C@H](CC(C)C)NC(=O)[C@H](Cc2c[nH]cn2)NC(=O)[C@H](C)NC(=O)[C@H](Cc2c[nH]cn2)NC(=O)[C@H](CC(C)C)NC(=O)[C@H](CC(C)C)NC(=O)[C@H](CCCNC(=N)N)NC(=O)[C@H](CCCNC(=N)N)NC(C)=O)C(N)=O)cc1 [HH-12, Ac-RRLLHAHLALHAHLLRRLK(ADJ12)-NH2] (Ac-RRLLHAHLALHAHLLRRLK([PEG3-X1])-NH2) | change in appearance and/or HPLC solubility | >98 | >98 | 55 | >98 | – | – | –
6 | CCOCc1nc2c(N)nc3ccccc3c2n1CC(C)(C)O [R848, 1-(4-amino-2-(ethoxymethyl)-1H-imidazo[4,5-c]quinolin-1-yl)-2-methylpropan-2-ol] | – | – | – | – | – | pronounced loss in body weight | comparable | –
7 | CCCCc1nc2c(N)nc3ccccc3c2n1Cc1ccc(CNC(=O)COCC(=O)NCCOCCOCCOCCC(=O)NCCCC[C@H](NC(=O)[C@H](CC(C)C)NC(=O)[C@H](CCCNC(=N)N)NC(=O)[C@H](CCCNC(=N)N)NC(=O)[C@H](CC(C)C)NC(=O)[C@H](CC(C)C)NC(=O)[C@H](CCCCN)NC(=O)[C@H](C)NC(=O)[C@H](CCCCN)NC(=O)[C@H](CC(C)C)NC(=O)[C@H](C)NC(=O)[C@H](CC(C)C)NC(=O)[C@H](CCCCN)NC(=O)[C@H](C)NC(=O)[C@H](CCCCN)NC(=O)[C@H](CC(C)C)NC(=O)[C@H](CC(C)C)NC(=O)[C@H](CCCNC(=N)N)NC(=O)[C@H](CCCNC(=N)N)NC(C)=O)C(N)=O)cc1 [KK-12, Ac-RRLLKAKLALKAKLLRRLK(ADJ12)-NH2] (Ac-RRLLKAKLALKAKLLRRLK([PEG3-X1])-NH2) | remains soluble | >98 | >98 | >98 | >98 | – | – | –
8 | K(Pam)-RRLLHALLALLAHLLRRLK(ADJ12)-NH2 (K(Palmitoyl)RRLLHALLALLAHLLRRLK(ADJ12)-NH2; reading uncertain; also: printed as K(Pam)-RRLLHALLALLAHLLRRLK(ADJ12)-NH2) [pHL-12] | – | – | – | – | – | – | lower level of antitumor activity | –
9 | CCCCCCCCCCCCCCCCCC(=O)NCCCCOn1c(CCCC)nc2c(N)nc3ccccc3c21 [3M-052] | – | – | – | – | – | pronounced loss in body weight | comparable | Systemic release of the drug [4]: systemic release of the drug after administration of this formulation was still observed; Clinical adverse events [5]: induction of adverse events related to cytokine release syndrome
